Data taken from patent US20170362324A1 (Biogen, published 2017).

What was measured:
[1] = biological target: T1, human αvβ5 expressed on BaF3 cells (stably transfected with human αv and β5 subunits) (human, UniProt P06756 31-1048; P18084 24-799); assay: FACS on BaF3-hu αvβ5 cells
T1 construct: also called αvβ5-BaF3; BaF3-hu αvβ5
Protocol: FACS Binding Assay: Cells were washed one time in PBS, and then resuspended in FACS buffer (1×PBS, 1% BSA, 1 mM CaCl₂, and 1 mM MgCl₂). 1×10⁶ cells were then incubated on ice for 1 hr in FACS buffer containing the test antibody in a total volume of 50 μl. After incubation, the cells were washed two times with ice cold FACS buffer, resuspended in 50 μl of FACS buffer containing 3 μg/ml goat anti-mouse IgG AlexaFluor488 (Jackson ImmunoResearch), and incubated on ice for 30 min. The cells were then washed twice with ice cold FACS buffer and fixed in 1% PFA overnight. Cell aggregates were removed by filtering through 40 μm filter plates (Millipore) and binding of the labeled secondary antibody was monitored by flow cytometry using a FACS Calibur (BD Biosciences).
(§1) Based on the results described above in Example 4, four humanized ALULA constructs: VH2/VL2, VH4/VL0, VH4/VL2, and VH5/VL2, were selected for further testing. These VH/VL constructs were expressed as fusion proteins with the hybrid, aglycosylated IgG4.P (S228P)/IgG1 (N297Q) domain, and human kappa light chain domain, and purified from the conditioned medium of stably transfected CHO cells. Each humanized ALULA construct was assessed for binding using competition ELISA with murine ALULA and by FACS using human αvβ5-transfected BaF3 cells. Each humanized ALULA construct was also assessed for blocking binding/adhesion to vitronectin by ELISA or cell adhesion assays using BaF3 cells stably transfected with human or cynomolgous monkey αvβ5. The humanized ALULA constructs were compared to a chimeric form of ALULA comprising the murine heavy and light chain variable domains fused to human IgG1 heavy chain and human kappa light chain domains. The four humanized ALULA constructs behaved similarly in the assays, with H4/L2 generally having similar or slightly higher affinity/blocking potency than the other constructs (see, Table 3).

[2] = biological target: T1, human αvβ5 expressed on BaF3 cells …; assay: cell-based or functional assay
[3] = biological target: cynomolgus monkey αvβ5 expressed on BaF3 cells (cynomolgus monkey, UniProt A0A2K5WCD3 31-1048; A0A2K5UEB4 24-799); assay: cell-based or functional assay
[4] = biological target: T2, human soluble αvβ5 protein (extracellular domains of human αv and β5 integrin subunits) (human, UniProt P06756 31-992; P18084 24-719); assay: ALULA competition ELISA on soluble human αvβ5
T2 construct: also called biotin-αvβ5; hsαvβ5
T2 sequence (P06756 31-992 limits assumed, chain 1 of 2): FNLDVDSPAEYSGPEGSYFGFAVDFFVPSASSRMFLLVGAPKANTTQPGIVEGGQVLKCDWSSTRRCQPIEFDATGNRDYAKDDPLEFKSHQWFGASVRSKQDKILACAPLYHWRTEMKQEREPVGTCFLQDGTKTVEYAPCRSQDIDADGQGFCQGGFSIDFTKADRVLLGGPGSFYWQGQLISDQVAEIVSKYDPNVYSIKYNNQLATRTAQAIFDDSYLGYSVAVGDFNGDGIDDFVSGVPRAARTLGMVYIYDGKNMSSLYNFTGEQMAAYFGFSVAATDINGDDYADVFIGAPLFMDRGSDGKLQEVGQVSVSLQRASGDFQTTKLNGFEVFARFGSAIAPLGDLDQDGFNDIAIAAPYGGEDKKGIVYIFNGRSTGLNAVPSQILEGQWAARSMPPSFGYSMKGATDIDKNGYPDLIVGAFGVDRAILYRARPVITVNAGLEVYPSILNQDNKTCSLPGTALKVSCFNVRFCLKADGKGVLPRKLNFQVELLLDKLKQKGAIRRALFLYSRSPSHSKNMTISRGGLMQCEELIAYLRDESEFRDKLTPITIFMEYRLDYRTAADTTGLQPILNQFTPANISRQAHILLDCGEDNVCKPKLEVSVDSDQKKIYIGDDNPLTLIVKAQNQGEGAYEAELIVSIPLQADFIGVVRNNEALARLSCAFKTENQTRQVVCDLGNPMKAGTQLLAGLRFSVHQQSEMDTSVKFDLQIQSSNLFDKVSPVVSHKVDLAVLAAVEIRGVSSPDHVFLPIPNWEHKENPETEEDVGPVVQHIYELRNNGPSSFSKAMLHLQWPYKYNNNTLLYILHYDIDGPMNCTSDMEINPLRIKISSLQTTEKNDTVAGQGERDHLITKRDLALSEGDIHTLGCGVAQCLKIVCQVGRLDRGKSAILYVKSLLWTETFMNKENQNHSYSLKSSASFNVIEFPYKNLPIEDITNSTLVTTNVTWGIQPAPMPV
T2 sequence (P18084 24-719 limits assumed, chain 2 of 2): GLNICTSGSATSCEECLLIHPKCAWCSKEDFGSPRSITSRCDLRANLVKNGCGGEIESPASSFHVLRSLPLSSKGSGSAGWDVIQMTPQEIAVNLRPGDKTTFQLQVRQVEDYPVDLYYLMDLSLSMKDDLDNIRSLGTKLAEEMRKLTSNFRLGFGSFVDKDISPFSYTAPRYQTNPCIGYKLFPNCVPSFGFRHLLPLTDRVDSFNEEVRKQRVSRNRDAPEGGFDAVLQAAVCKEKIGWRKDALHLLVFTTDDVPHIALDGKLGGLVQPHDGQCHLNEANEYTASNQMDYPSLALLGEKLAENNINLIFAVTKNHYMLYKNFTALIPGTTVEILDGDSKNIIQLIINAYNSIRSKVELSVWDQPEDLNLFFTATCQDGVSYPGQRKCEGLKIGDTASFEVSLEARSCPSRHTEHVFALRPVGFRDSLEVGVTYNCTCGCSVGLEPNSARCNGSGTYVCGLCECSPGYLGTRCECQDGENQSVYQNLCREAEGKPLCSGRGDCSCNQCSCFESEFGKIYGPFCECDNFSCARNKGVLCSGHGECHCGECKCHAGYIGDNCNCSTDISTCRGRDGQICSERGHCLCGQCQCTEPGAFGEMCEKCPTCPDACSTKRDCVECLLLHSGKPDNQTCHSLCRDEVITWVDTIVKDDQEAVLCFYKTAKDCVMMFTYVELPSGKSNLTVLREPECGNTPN
Protocol: Competition ELISA: A 96-well microtiter plate was coated with 50 μl/well of 5 μg/mL soluble human αvβ5 protein at 4° C. overnight. The plate was washed with wash buffer (0.05% Tween-20 in PBS) four times in an automated plate washer. 300 μl/well of 1% BSA in PBS was added and incubated for 1 hr at 25° C. to block nonspecific binding. The plate was washed as above, and dilutions of humanized antibodies mixed with 1 nM murine ALULA in PBS containing 1% BSA, were added (50 μl/well). The plate was incubated for 1 hr at 25° C., washed, and then incubated for 40 minutes with 100 μl/well of […] goat anti-mouse antibody. Bound antibody was detected using 3,3′,5,5′-tetramethylbenzidine (TMB). Binding was indicated by the absorbency measured at 450 nm.
as §1

[5] = biological target: T2, human soluble αvβ5 protein …; assay: αvβ5-vitronectin blocking ELISA
Protocol: Vitronectin Inhibition ELISA: 96-well microtiter plates were coated with 5 μg/ml purified human plasma vitronectin diluted in PBS (50 μl/well) at 4° C. overnight. After the coating solution was removed, the plates were blocked with 300 μl/well of 1% BSA/TBS at 25° C. for 1 hr. The plate was washed with wash buffer (0.05% Tween-20 in TBS containing 1 mM CaCl₂ and 1 mM MgCl₂), and dilutions of humanized antibodies mixed with 1 nM soluble αvβ5 protein in TBS containing 1% BSA, 1 mM CaCl₂ and 1 mM MgCl₂ were added (50 μl/well) and incubated at 25° C. for 1 hr. The plate was washed 4 times with wash buffer in an automated plate washer and incubated sequentially with 50 μl/well of the anti-beta5 monoclonal antibody 15F11 (at 0.5 ug/mL) in for 1 hr at 25° C. in TBS containing 1% BSA, 1 mM CaCl₂ and 1 mM MgCl₂. After washing the plate 4 times with wash buffer, 100 μl/well of a 1:5000 dilution of a peroxidase-conjugated goat anti-mouse antibody in TBS containing 1% BSA, 1 mM CaCl₂ and 1 mM MgCl₂ were added and incubated for 1 hr at 25° C. Bound protein was detected using the TMB substrate and indicated by the absorbency measured at 450 nm.
as §1

[6] = biological target: T1, human αvβ5 expressed on BaF3 cells …; assay: FACS binding curves on αvβ5-BaF3 cells, 10,000 cells/experiment; monovalent Fab, not mAb
Protocol: This experiment was carried out to confirm the affinity of ALULA-H4/L2-IgG4.P(S228P)/IgG1(N297Q) for cell surface expressed αvβ5 stably expressed on murine BaF3 cells. Binding curves were generated using a lower number of cells to ensure that antibody was not simply titrating the receptors on the cell.

[7] = biological target: T2, human soluble αvβ5 protein …; assay: ELISA, Fab blocking of 2 nM soluble αvβ5 binding to immobilized human plasma vitronectin
Protocol: Fab fragments of the four constructs of Example 6 were generated from the corresponding IgG1(N297Q) versions by digestion with papain. The ability of each Fab to block 2 nM soluble αvβ5 binding to immobilized human plasma vitronectin was determined by ELISA.

T1 sequence (P06756 31-1048 limits assumed, chain 1 of 2): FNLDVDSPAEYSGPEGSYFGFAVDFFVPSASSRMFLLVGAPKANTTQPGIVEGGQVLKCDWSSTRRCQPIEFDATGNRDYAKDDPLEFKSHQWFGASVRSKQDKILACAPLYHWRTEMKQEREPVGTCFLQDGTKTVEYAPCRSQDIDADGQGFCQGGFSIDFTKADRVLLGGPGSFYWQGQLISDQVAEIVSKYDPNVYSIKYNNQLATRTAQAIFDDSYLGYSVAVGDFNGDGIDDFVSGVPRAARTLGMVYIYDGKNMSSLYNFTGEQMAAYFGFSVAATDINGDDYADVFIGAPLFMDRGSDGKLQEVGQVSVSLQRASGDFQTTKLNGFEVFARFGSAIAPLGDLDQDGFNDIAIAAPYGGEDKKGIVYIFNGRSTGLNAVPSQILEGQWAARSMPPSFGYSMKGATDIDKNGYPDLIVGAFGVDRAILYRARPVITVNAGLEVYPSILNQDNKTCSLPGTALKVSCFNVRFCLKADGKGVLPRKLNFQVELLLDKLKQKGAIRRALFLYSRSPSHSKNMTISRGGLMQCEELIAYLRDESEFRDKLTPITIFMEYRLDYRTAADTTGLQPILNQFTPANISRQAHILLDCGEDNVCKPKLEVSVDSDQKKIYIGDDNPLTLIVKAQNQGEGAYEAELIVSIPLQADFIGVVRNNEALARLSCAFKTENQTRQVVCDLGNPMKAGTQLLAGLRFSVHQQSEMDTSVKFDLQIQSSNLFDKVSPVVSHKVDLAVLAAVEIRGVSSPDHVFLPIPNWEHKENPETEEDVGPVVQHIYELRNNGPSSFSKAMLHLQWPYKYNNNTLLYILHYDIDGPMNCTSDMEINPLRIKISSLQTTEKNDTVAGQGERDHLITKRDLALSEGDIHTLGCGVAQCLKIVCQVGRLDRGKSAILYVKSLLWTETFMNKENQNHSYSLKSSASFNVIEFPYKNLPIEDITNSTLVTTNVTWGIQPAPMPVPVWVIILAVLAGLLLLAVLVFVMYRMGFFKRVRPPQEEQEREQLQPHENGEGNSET
T1 sequence (P18084 24-799 limits assumed, chain 2 of 2): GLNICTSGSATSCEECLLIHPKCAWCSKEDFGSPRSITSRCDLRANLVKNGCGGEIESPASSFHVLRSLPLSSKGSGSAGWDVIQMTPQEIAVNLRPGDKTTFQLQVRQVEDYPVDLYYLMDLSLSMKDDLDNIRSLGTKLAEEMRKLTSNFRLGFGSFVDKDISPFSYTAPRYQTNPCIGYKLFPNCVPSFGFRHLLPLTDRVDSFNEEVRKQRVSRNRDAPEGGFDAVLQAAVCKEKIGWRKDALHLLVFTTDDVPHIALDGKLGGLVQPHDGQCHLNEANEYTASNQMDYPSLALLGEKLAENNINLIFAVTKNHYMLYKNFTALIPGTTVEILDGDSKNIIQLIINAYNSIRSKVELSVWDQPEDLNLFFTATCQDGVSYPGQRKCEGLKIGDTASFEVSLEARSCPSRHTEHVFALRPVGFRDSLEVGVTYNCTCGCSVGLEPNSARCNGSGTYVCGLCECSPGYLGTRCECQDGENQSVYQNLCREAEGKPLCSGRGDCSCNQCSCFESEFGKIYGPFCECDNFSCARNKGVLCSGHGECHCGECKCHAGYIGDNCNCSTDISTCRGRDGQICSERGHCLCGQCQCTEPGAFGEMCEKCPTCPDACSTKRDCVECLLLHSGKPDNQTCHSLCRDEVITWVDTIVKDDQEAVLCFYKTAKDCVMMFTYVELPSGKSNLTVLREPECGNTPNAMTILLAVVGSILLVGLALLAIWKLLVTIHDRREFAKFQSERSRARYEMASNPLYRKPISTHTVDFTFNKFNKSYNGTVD

Row | Binder | EC50 [1] | BaF3-hu αvβ5 Cell adhesion to vitronectin (IC50, nM) [2] | BaF3-cyno αvβ5 Cell adhesion to vitronectin (IC50, nM) [3] | IC50 [4] | IC50 [5] | Kd [6] | Fold change (IC50 against mouse chimeric ALULA) [7] | IC50 [7] | Fold chg. (EC50 against mouse chimeric ALULA) [1] | BaF3-hu αvβ5 Cell adhesion to vitronectin, Fold chg. (against mouse chimeric ALULA) [2] | BaF3-cyno αvβ5 Cell adhesion to vitronectin, Fold chg. (against mouse chimeric ALULA) [3] | Fold chg. (IC50 against mouse chimeric ALULA) [4] | Fold chg. (IC50 against mouse chimeric ALULA) [5]
1 | VH2/VL2 Agly-IgG4.P (S228P)/IgG1 (N297Q) (antibody, V domains shown, also called VH2/VL2 (Agly-IgG4P/G1); H2/L2) VH: EVQVVQSGGGLVKPGESLRLSCAASGYTFTSYWMHWVKQAPGKGLEWVGAIYPGNSDTSYNQKFKGKFTISADTSSNTAYLQMNSLKTEDTAVYYCTTTTYGYDWFAYWGQGTLVTVSS VL: NIQMTQSPSSLSASVGDRVTMSCKSSQSVLYSSNQKNYLAWYQQKPGKSPKLLIYWASTRESGVPDRFTGSGSGTDFTLTISSLQPEDFATYYCHQYLSSLTFGQGTKLEIKR | 5.73 nM | 0.3 nM | 0.61 nM | 2.61 nM | 1.74 nM | – | – | – | 1.1 fold | 1.8 fold | 1 fold | 1.4 fold | 1.1 fold
2 | VH5/VL2 Agly-IgG4.P (S228P)/IgG1 (N297Q) (antibody, V domains shown, also called VH5/VL2 (Agly-IgG4P/G1); H5/L2) VH: EVQVQQSGGGLVKPGGSLRLSCKASGYTFTSYWMHWVKQAPGKGLEWVGAIYPGNSDTSYNQKFKGKATLSAVTSPNTAYLQMNSLKTEDTAVYYCTTTTYGYDWFAYWGQGTLVTVSS VL: NIQMTQSPSSLSASVGDRVTMSCKSSQSVLYSSNQKNYLAWYQQKPGKSPKLLIYWASTRESGVPDRFTGSGSGTDFTLTISSLQPEDFATYYCHQYLSSLTFGQGTKLEIKR | 2.9 nM | 0.29 nM | 0.63 nM | 1.85 nM | 1.24 nM | – | – | – | 0.5 fold | 1.7 fold | 1 fold | 1 fold | 0.8 fold

The remaining lines, values ahead:

Row | EC50 [1] | BaF3-hu αvβ5 Cell adhesion to vitronectin (IC50, nM) [2] | BaF3-cyno αvβ5 Cell adhesion to vitronectin (IC50, nM) [3] | IC50 [4] | IC50 [5] | Kd [6] | Fold change (IC50 against mouse chimeric ALULA) [7] | IC50 [7] | Fold chg. (EC50 against mouse chimeric ALULA) [1] | BaF3-hu αvβ5 Cell adhesion to vitronectin, Fold chg. (against mouse chimeric ALULA) [2] | BaF3-cyno αvβ5 Cell adhesion to vitronectin, Fold chg. (against mouse chimeric ALULA) [3] | Fold chg. (IC50 against mouse chimeric ALULA) [4] | Fold chg. (IC50 against mouse chimeric ALULA) [5] | Binder
3 | 5.06 nM | 0.17 nM | 0.61 nM | 1.81 nM | 1.6 nM | – | – | – | – | – | – | – | – | Mouse chimeric ALULA (murine ALULA variable domains fused to human IgG1 heavy chain and human kappa light chain domains) (antibody, V domains shown, also called chimeric form of ALULA; chimeric murine antibody) VH: EVQVQQSGTVLARPGASVKMSCKASGYTFTSYWMHWVKQRPGQGLEWIGAIYPGNSDTSYNQKFKGKAKLTAVTSPNTAYMELSSLTNEDSAVYYCTTTTYGYDWFAYWGQGTLVTVSA VL: NIMMTQSPSSLTVSAGEKVTMSCKSSQSVLYSSNQKNYLAWYQQKPGQSPKLLIYWASTRESGVPDRFTGSGSGTDFTLTISSVQAEDLAVYYCHQYLSSLTFGAGTKLELK
4 | – | – | – | – | – | 0.42 nM | 0.9 fold | 4.3 nM | – | – | – | – | – | VH4/VL2 Fab fragment (Fab, V domains shown, also called H4/L2 (Fab source); H4L2 hIgG1 Fab) VH: EVQVVQSGGGLVKPGESLRLSCKASGYTFTSYWMHWVKQAPGKGLEWVGAIYPGNSDTSYNQKFKGKFTISADTSPNTAYLQMNSLKTEDTAVYYCTTTTYGYDWFAYWGQGTLVTVSS VL: NIQMTQSPSSLSASVGDRVTMSCKSSQSVLYSSNQKNYLAWYQQKPGKSPKLLIYWASTRESGVPDRFTGSGSGTDFTLTISSLQPEDFATYYCHQYLSSLTFGQGTKLEIK
5 | 2.52 nM | 0.09 nM | 0.43 nM | 1.84 nM | 1.52 nM | – | – | – | 0.5 fold | 0.5 fold | 0.7 fold | 1 fold | 1 fold | VH4/VL0 Agly-IgG4.P (S228P)/IgG1 (N297Q) (antibody, V domains shown, also called VH4/VL0 (Agly-IgG4P/G1); H4/L0) VH: EVQVVQSGGGLVKPGESLRLSCKASGYTFTSYWMHWVKQAPGKGLEWVGAIYPGNSDTSYNQKFKGKFTISADTSPNTAYLQMNSLKTEDTAVYYCTTTTYGYDWFAYWGQGTLVTVSS VL: DIQMTQSPSSVSASVGDRVTITCKSSQSVLYSSNQKNYLAWYQQKPGKAPKLLIYWASTRESGVPSRFSGSGSGTDFTLTISSLQPEDFATYYCHQYLSSLTFGQGTKVEIKR
